Experimental data as given in patent US20240409647A1 (SINOMAB BIOSCIENCE, published 2024).

Legend:
[1] = biological target: T1, human IL-17 receptor subunit E (human, UniProt Q8NFR9 24-454, limits assumed); test: ELISA, coated receptor; SM17 at 0.0032 µg/mL; well 1
T1 construct: also called hIL17RE
T1 sequence (looked up): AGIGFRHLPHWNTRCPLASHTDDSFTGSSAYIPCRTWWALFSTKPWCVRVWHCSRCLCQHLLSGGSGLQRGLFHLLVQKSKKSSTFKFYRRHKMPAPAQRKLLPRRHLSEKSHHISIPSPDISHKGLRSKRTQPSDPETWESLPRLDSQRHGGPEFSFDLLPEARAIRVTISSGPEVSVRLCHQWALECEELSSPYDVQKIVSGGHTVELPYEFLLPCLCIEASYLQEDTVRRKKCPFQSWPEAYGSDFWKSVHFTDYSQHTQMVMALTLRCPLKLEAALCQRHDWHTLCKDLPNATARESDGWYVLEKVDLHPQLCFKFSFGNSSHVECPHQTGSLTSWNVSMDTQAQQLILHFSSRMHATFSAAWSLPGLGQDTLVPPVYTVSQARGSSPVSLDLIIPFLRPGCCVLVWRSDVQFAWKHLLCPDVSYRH

[2] = biological target: T2, human IL-17 receptor subunit D (human, UniProt Q8NFM7 28-299, limits assumed); test: as above
T2 construct: also called IL17RD; hIL 17RD
T2 sequence (looked up): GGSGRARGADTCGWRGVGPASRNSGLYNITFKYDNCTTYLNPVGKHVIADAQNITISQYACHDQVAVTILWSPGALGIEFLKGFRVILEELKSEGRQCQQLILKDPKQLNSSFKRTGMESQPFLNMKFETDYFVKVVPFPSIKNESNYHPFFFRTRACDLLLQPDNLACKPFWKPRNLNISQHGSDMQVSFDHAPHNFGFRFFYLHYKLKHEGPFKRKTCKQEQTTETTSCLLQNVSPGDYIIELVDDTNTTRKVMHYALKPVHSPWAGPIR

[3] = biological target: T3, human IL-17 receptor subunit A (human, UniProt Q96F46 33-320); test: as above
T3 construct: also called IL17RA; hIL17RA

[4] = biological target: T4, human IL-17RB protein (recombinant, R&D systems) (human); test: as above
T4 construct: Bought protein; also called hIL17RB
T4 sequence (Q9NRM6 whole entry, looked up): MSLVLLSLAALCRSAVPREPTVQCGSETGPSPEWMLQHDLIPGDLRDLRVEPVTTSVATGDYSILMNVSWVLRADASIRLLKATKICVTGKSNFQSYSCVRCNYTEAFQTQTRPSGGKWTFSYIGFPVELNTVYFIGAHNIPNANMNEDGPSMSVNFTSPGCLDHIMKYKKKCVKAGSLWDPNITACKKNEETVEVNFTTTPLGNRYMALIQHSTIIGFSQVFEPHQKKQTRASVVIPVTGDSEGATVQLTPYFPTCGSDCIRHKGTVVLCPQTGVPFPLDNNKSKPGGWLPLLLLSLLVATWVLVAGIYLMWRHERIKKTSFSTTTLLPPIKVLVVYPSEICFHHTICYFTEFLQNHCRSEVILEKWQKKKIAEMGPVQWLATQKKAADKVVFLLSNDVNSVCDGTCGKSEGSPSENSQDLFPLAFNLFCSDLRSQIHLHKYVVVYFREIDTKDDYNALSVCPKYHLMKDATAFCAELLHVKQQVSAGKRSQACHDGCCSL

[5] = biological target: T5, human IL-17 receptor subunit C (human, UniProt Q8NAC3-2 21-467, limits assumed); test: ELISA, coated receptor; SM17 at 0.08 µg/mL; well 2
T5 construct: also called IL17RC; hIL17RC
T5 sequence (looked up): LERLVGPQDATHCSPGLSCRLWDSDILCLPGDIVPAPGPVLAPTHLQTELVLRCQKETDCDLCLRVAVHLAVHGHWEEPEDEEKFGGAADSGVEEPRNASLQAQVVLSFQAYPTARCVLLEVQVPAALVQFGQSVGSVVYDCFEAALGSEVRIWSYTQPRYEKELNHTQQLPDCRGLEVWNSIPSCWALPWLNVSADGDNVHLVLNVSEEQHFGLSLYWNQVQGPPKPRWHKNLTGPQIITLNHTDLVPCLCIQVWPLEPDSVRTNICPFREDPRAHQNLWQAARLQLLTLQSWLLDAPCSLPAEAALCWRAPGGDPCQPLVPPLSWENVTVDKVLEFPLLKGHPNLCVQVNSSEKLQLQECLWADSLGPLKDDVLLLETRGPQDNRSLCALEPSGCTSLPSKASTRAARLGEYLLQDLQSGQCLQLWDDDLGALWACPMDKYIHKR

[6] = biological target: T1, human IL-17 receptor subunit E; test: ELISA, coated receptor; SM17 at 0.08 µg/mL; well 2
[7] = biological target: T2, human IL-17 receptor subunit D; test: ELISA, coated receptor; SM17 at 0.08 µg/mL; well 2
[8] = biological target: T3, human IL-17 receptor subunit A; test: ELISA, coated receptor; SM17 at 0.08 µg/mL; well 2
[9] = biological target: T4, human IL-17RB protein (recombinant, R&D …); test: ELISA, coated receptor; SM17 at 0.08 µg/mL; well 2

OD 450 nm Absorption [1]: -0.01 OD450
OD 450 nm Absorption [2]: 0.04 OD450
OD 450 nm Absorption [3]: 0.2 OD450
OD 450 nm Absorption [4]: 0.16 OD450
OD 450 nm Absorption [5]: -0.02 OD450
OD 450 nm Absorption [6]: 0 OD450
OD 450 nm Absorption [7]: 0.01 OD450
OD 450 nm Absorption [8]: 0.06 OD450
OD 450 nm Absorption [9]: 0.64 OD450
B1: SM17 (antibody, human IgG4 S228P, kappa, V domains shown)
VH: QVQLVQSGAEVKKPGASVKVSCKASGYTFISYWMNWVRQAPGQGLEWMGRIDPYDSEIQYNQKFKDRVTMTRDTSISTAYMELSRLRSDDTAVYYCARSGGFDWFAYWGQGTLVTVSS
VL: DIQMTQSPSSLSASVGDRVTITCRASENINSNLAWYQQKPGKAPKLLLYDVTNLADGVPSRFSGSGSGTDYTLTISSLQPEDFATYYCQHFWGPPYTFGGGTKVEIKR
notes: other paragraphs and claim 15 call the same entries VH and VL; also called humanized anti-IL17RB monoclonal antibody
